From article doi:10.1101/2020.12.19.423584 (bioRxiv, 2020)

Biological target: purified SARS-CoV-2 N protein produced in pupae (SARS-CoV-2, UniProt P0DTC9 1-419)
Test: ELISA

B1: Niemann-Pick type C1 (NPC1) receptor, endogenous human (natural protein)
chain: QSCVWYGECGIAYGDKRYNCEYSGPPKPLPKDGYDLVQELCPGFFFGNVSLCCDVRQLQTLKDNLQLPLQFLSRCPSCFYNLLNLFCELTCSPRQSQFLNVTATEDYVDPVTNQTKTNVKELQYYVGQSFANAMYNACRDVEAPSSNDKALGLLCGKDADACNATNWIEYMFNKDNGQAPFTITPVFSDFPVHGMEPMNNATKGCDESVDEVTAPCSCQDCSIVCGPKPQPPPPPAPWTILGLDAMYVIMWITYMAFLLVFFGAFFAVWCYRKRYFVSEYTPIDSNIAFSVNASDKGEASCCDPVSAAFEGCLRRLFTRWGSFCVRNPGCVIFFSLVFITACSSGLVFVRVTTNPVDLWSAPSSQARLEKEYFDQHFGPFFRTEQLIIRAPLTDKHIYQPYPSGADVPFGPPLDIQILHQVLDLQIAIENITASYDNETVTLQDICLAPLSPYNTNCTILSVLNYFQNSHSVLDHKKGDDFFVYADYHTHFLYCVRAPASLNDTSLLHDPCLGTFGGPVFPWLVLGGYDDQNYNNATALVITFPVNNYYNDTEKLQRAQAWEKEFINFVKNYKNPNLTISFTAERSIEDELNRESDSDVFTVVISYAIMFLYISLALGHMKSCRRLLVDSKVSLGIAGILIVLSSVACSLGVFSYIGLPLTLIVIEVIPFLVLAVGVDNIFILVQAYQRDERLQGETLDQQLGRVLGEVAPSMFLSSFSETVAFFLGALSVMPAVHTFSLFAGLAVFIDFLLQITCFVSLLGLDIKRQEKNRLDIFCCVRGAEDGTSVQASESCLFRFFKNSYSPLLLKDWMRPIVIAIFVGVLSFSIAVLNKVDIGLDQSLSMPDDSYMVDYFKSISQYLHAGPPVYFVLEEGHDYTSSKGQNMVCGGMGCNNDSLVQQIFNAAQLDNYTRIGFAPSSWIDDYFDWVKPQSSCCRVDNITDQFCNASVVDPACVRCRPLTPEGKQRPQGGDFMRFLPMFLSDNPNPKCGKGGHAAYSSAVNILLGHGTRVGATYFMTYHTVLQTSADFIDALKKARLIASNVTETMGINGSAYRVFPYSVFYVFYEQYLTIIDDTIFNLGVSLGAIFLVTMVLLGCELWSAVIMCATIAMVLVNMFGVMWLWGISLNAVSLVNLVMSCGISVEFCSHITRAFTVSMKGSRVERAEEALAHMGSSVFSGITLTKFGGIVVLAFAKSQIFQIFYFRMYLAMVLLGATHGLIFLPVLLSYIGPSVNKAKSCATEERYKGTERERLLNF
**Q.** Does B1 bind?
**A.** Result: binds
